Measurements: publication PMC11032447, “A hydrophobic groove in secretagogin allows for alternate interactions with SNAP-25 and syntaxin-4 in endocrine tissues” (Proceedings of the National Academy of Sciences of the …, 2024)
No end group written: not given here.

T1: human secretagogin (human, UniProt O76038 1-276)
T1 construct: human secretagogin; construct in Dataset S1; Construct limits are in Dataset S1; also called recombinant human secretagogin; source: recombinant; coexpressed and copurified with the GFP fusion, or purified
T1 sequence (looked up): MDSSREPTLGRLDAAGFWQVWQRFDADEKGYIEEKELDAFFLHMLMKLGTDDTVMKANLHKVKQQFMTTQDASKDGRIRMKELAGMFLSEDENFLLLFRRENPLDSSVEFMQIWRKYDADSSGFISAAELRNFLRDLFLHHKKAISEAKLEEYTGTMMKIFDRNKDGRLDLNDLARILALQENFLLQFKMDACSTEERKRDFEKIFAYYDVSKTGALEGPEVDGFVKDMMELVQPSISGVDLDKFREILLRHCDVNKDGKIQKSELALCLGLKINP

B1: mouse secretagogin (natural protein, UniProt Q91WD9 1-276, looked up)
chain: MDNARRKTPARLDAACFWQIWQRFDKEEKGYIRETELDAFFDHLLAKSGTEDTLMEENVQKVKEQLMTSHNVSKEGRILMKELASMFLSEDENFLLFFRLETPLDNSVEFMQIWRKYDADSSGFISAAELCNFLRDLFLHHKKNISEAELEEYTSTMMKIFDKNKDGRLDLNDLARILALQENFLLQFKMDASSTEERKRDFEKIFAHYDVSKTGALEGPEVDGFVKDMMELVQPSISGVDLDKFREILLRHCDVNKDGKIQKSELALCLGLKINP
notes: mouse secretagogin, the three-domain protein (domains A, B, C); construct in Dataset S1; also called mSCGN; SCGN; source: recombinant, produced and purified; E. coli BL21(DE3) named for the pull-down constructs
B2: GFPmSTX4Hb7 (peptide)
chain: TPLPEESMKQGLQNLREEIKQLGREVRAQLKAIEPQKE
modifications: also: fused as C-terminal tag to GFP
notes: mouse syntaxin-4, stretch of the Hb helix, C-terminal tag on GFP; source: recombinant GFP fusion; not shown: GFP, N-terminal, kept
B3: GFPmSTX4Hb9 (peptide)
chain: ESMKQGLQNLREEIKQLGREVRAQLKAIEPQKE
modifications: also: fused as C-terminal tag to GFP
notes: as for B2
B4: GFPmSTX4Hb10 (peptide)
chain: GLQNLREEIKQLGREVRAQLKAIEPQKE
modifications: also: fused as C-terminal tag to GFP
notes: mouse syntaxin-4, stretch of the Hb helix, C-terminal tag on GFP; A linker stands between GFP and the peptide; also called GFP-syntaxin-4-peptide; chimeric GFP-syntaxin-4 (STX4)-derived peptide; source: recombinant GFP fusion; complex with secretagogin isolated by preparative SEC; not shown: GFP, N-terminal, kept
B5: Habc domain of mouse syntaxin-4 (domain or fragment, UniProt P70452 32-170, looked up)
chain: ARLGSPDDEFFQKVQTIRQTMAKLESKVRELEKQQVTILATPLPEESMKQGLQNLREEIKQLGREVRAQLKAIEPQKEEADENYNSVNTRMKKTQHGVLSQQFVELINKCNSMQSEYREKNVERIRRQLKITNAGMVSD
notes: mouse syntaxin-4, globular Habc domain; limits in Dataset S1; The His6 tag is told for the pull-down baits; a Habc with the N-peptide is m36; also called Habc module of syntaxin-4; syntaxin-4-derived Habc module; source: recombinant, produced and purified; E. coli BL21(DE3) named for the pull-down constructs
B6: helix-a of the Habc domain of mouse syntaxin-4 (domain or fragment, UniProt P70452 32-80, looked up)
chain: ARLGSPDDEFFQKVQTIRQTMAKLESKVRELEKQQVTILATPLPEESMK
notes: limits in Dataset S1; Used as bait in the pull-down; source: recombinant; E. coli BL21(DE3) named for the pull-down constructs
B7: helix-b of the Habc domain of mouse syntaxin-4 (domain or fragment, UniProt P70452 72-109, looked up)
chain: B2 chain
notes: limits in Dataset S1; Used as bait in the pull-down; also called Hb; syntaxin-4 Hb; source: recombinant; E. coli BL21(DE3) named for the pull-down constructs
B8: mouse SNAP-25 peptide 155-179 (peptide)
chain: GIIGNLRHMALDMGNEIDTQNRQID
notes: mouse SNAP-25, stretch of the C-terminal helix; Tags of the deletion constructs are in Dataset S1; also called mSNAP-25^14−33; SNAP-25^14–33; source: recombinant deletion construct of SNAP-25c
B9: GFP carrying the SNAP-25-derived peptide (AA155-179) at its C-terminus (peptide)
chain: GIIGNLRHMALDMGNEIDTQNRQID
notes: SNAP-25 stretch 155-179 (mouse and human identical), attached to the C-terminus of GFP; GFP serves as crystallization chaperon; also called GFP-SNAP-25c chimera; GFP-linked SNAP-25-peptide; source: coexpressed and copurified with secretagogin; not shown: GFP, N-terminal, kept

Legend:
[1] = target: T2, C-terminal SNARE domain of mouse SNAP-25 (mouse, UniProt P60879 140-206); assay: ITC; in the presence of Ca2+; conditions: both partners purified
T2 construct: mouse SNAP-25, C-terminal SNARE domain (helix), identical in SNAP25-1 and SNAP25-2; limits in Dataset S1; The pull-down fragments are said to derive from isoform-2; also called SNAP-25c; SNAP-25C; source: recombinant; E. coli BL21(DE3) named for the pull-down constructs
T2 sequence (P60879 140-206): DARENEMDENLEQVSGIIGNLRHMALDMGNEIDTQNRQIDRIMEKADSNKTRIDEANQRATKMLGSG

[2] = target: B5; assay: ITC; in the presence of Ca2+; conditions: both partners purified
mouse secretagogin [3] = target: B1; assay: ITC; GFP-fusion peptides of the syntaxin-4 Hb helix; the sentence names no method, the values are said to stand in SI Fig. S3E and SI Table S1 (ITC data); conditions: both partners purified
mouse secretagogin [4] = target: B1; assay: ITC; in the presence of Ca2+; conditions: both partners purified
human secretagogin = target: T1, human secretagogin; assay: co-expression and co-purification + SEC; GFP-peptide fusion coexpressed with human secretagogin; in the presence of Ca2+; conditions: partners not purified

| Binder | Kd (mouse secretagogin [3]) | Kd (mouse secretagogin [4]) | also measured |
| --- | --- | --- | --- |
| B1 | – | – | stoichiometry N [1]: 1; stoichiometry N [2]: 1 |
| B2 | 275 nM | – | – |
| B3 | 541 nM | – | – |
| B4 | 826 nM | – | – |
| B5 | – | ~14000 nM | – |
| B6 | – | ~7000 nM | – |
| B7 | – | ~209 nM | – |
| B8 | – | ~46.6 nM | – |
| B9 | – | – | binding result (human secretagogin): binds |
